Data on four molecules can be found in PMC6137974, “FZP determines grain size and sterile lemma fate in rice”.

Data set [1] deals with T1, FZP (FRIZZY PANICLE) (Oryza sativa, UniProt Q8H3Q1 1-318). Put plainly: EMSA; 0.5, 1 and 1.5 ug protein; EMSA, 15 ul, 1 ug biotin probe, 0.5-1.5 ug protein, LightShift Chemiluminescent EMSA Kit (Thermo) binding buffer; salt, pH and temperature not stated. As to conditions: protein: recombinant; tags: His-SUMO (pET-SUMO); label: 5' biotin; blunt.
Data set [2] has as its target T1, FZP (FRIZZY PANICLE). Put plainly: EMSA; 1.5 ug protein; EMSA, 15 ul, 1 ug biotin probe, 0.5-1.5 ug protein, LightShift Chemiluminescent EMSA Kit (Thermo) binding buffer; salt, pH and temperature not stated. As to conditions: protein: recombinant; tags: His-SUMO (pET-SUMO); label: 5' biotin; blunt.

T1 sequence (Q8H3Q1 whole entry): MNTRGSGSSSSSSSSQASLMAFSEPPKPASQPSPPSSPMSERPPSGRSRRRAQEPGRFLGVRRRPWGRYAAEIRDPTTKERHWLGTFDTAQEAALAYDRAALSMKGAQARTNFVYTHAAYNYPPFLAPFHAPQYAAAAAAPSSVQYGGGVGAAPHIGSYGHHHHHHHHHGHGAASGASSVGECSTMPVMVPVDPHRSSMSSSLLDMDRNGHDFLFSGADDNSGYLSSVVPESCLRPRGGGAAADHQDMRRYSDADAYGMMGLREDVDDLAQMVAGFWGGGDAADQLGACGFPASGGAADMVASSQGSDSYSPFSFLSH

B1: GCC-box probe (3 repeats) (dsDNA)
DNA 1: CATAAGAGCCGCCACTCATAAGAGCCGCCACTCATAAGAGCCGCCACT
DNA 2: AGTGGCGGCTCTTATGAGTGGCGGCTCTTATGAGTGGCGGCTCTTATG
As to B1, in the data set with FZP (FRIZZY PANICLE) [1], the binding result is recorded as “binds”.

B2: mGCC-box probe (3 repeats) (dsDNA)
DNA 1: CATAAGATACTTGACTCATAAGATACTTGACTCATAAGATACTTGACT
DNA 2: AGTCAAGTATCTTATGAGTCAAGTATCTTATGAGTCAAGTATCTTATG
For the molecule B2, the binding result with FZP (FRIZZY PANICLE) [2] is recorded as “no binding”.

B3: mDRE probe (3 repeats) (dsDNA)
DNA 1: ATACGTCTTTGACGAGATACGTCTTTGACGAGATACGTCTTTGACGAG
DNA 2: CTCGTCAAAGACGTATCTCGTCAAAGACGTATCTCGTCAAAGACGTAT
On to B3, for which the binding result with FZP (FRIZZY PANICLE) [2] is “no binding”.

B4: DRE probe (3 repeats) (dsDNA)
DNA 1: ATACTACCGACATGAGATACTACCGACATGAGATACTACCGACATGAG
DNA 2: CTCATGTCGGTAGTATCTCATGTCGGTAGTATCTCATGTCGGTAGTAT
Take B4: in the data set with FZP (FRIZZY PANICLE) [1], the binding result is listed as “binds”.
